Patent US10704030B2, “P450-BM3 variants with improved activity” (Codexis, Inc., priority 2015, dated 2020)

Tests used:
Assay type in all cases: biochemical
[1] = Validation of generalist properties: oxidation of gefitinib by lyophilized P450-BM3 variant, UPLC-MS; settings: [Gefitinib] = 1 mM; for TON: TON = [substrate]*% conversion/[P450]; for FIOPC (B12): fold improvement over parent MCYP-P1.2-B12
How it was run: (§1)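 Lyophilized lysate of E. coli-expressed P450-BM3 variant (stock standardized to 12 μM heme) was incubated 24 h at 30 °C with 1 or 2 mM substrate, 1.0 mM NADP+, 25 mM glucose, 0.5 mg/mL glucose dehydrogenase and 5% DMSO in 100 mM potassium phosphate. Acetonitrile-quenched samples were analyzed by UPLC-MS (positive ESI).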

[2] = Validation of generalist properties: oxidation of diclofenac by lyophilized P450-BM3 variant, UPLC-MS; settings: [Diclofenac] = 1 mM; for TON: TON = [substrate]*% conversion/[P450]; for FIOPC (B12): fold improvement over parent MCYP-P1.2-B12
How it was run: as §1

[3] = Validation of generalist properties: oxidation of imatinib by lyophilized P450-BM3 variant, UPLC-MS; settings: [Imatinib] = 1 mM; for TON: TON = [substrate]*% conversion/[P450]; for FIOPC (B02): fold improvement over parent MCYP-P1.2-B02
How it was run: as §1

[4] = Validation of generalist properties: oxidation of loratadine by lyophilized P450-BM3 variant, UPLC-MS; settings: [Loratadine] = 1 mM; for TON: TON = [substrate]*% conversion/[P450]; for FIOPC (B12): fold improvement over parent MCYP-P1.2-B12
How it was run: as §1

Molecule | % Conv. [1] | TON [1] | % Conv. [2] | TON [2] | % Conv. [3] | TON [3] | % Conv. [4] | TON [4] | FIOPC (B12) [1] | FIOPC (B12) [2] | FIOPC (B12) ([3]; fold improvement over parent MCYP-P1.2-B12) | FIOPC (B12) [4] | FIOPC (B02) [3]
SEQ ID NO: 12: P450-BM3 parental backbone from the commercially available MCYP panel (MCYP-0343; Codexis) (protein, P450_BM3) MTIKEMPQPKTFGELKNLPLLNTDKPVQALMKIADELGEIFKFEAPGCVTRYLSSQRLIKEACDESRFDKNLSQALKFSRDFAGDGLFTSWTHEINWKKAHNILLPSFSQQAMKGYHAMMVDIAVQLVQKWERLNADEHIEVSEDMTRLTLDTIGLCGFNYRFNSFYRDQPHPFIISMVRALDEVMNKLQRANPDDPAYDENKRQCQEDIKVMNDLVDKIIADRKARGEQSDDLLTQMLNGKDPETGEPLDDGNISYQIITFLIAGHETTSGLLSFALYFLVKNPHVLQKVAEEAARVLVDPVPSYKQVKQLKYVGMVLNEALRLWPTAPAFSLYAKEDTVLGGEYPLEKGDEVMVLIPQLHRDKTIWGDDVEEFRPERFENPSAIPQHAFKPFGNGQRACIGQQFALHEATLVLGMMLKHFDFEDHTNYELDIKETLTLKPEGFVVKAKSKKIPLGGIPSPSTEQSAKKVRKKAENAHNTPLLVLYGSNMGTAEGTARDLADIAMSKGFAPQVATLDSHAGNLPREGAVLIVTASYNGHPPDNAKQFVDWLDQASADEVKGVRYSVFGCGDKNWATTYQKVPAFIDETLAAKGAENIADRGEADASDDFEGTYEEWREHMWSDVAAYFNLDIENSEDNKSTLSLQFVDSAADMPLAKMHGAFSTNVVASKELQQPGSARSTRHLEIELPKEASYQEGDHLGVIPRNYEGIVNRVTARFGLDASQQIRLEAEEEKLAHLPLAKTVSVEELLQYVELQDPVTRTQLRAMAAKTVCPPHKVELEALLEKQAYKEQVLAKRLTMLELLEKYPACEMKFSEFIALLPSIRPRYYSISSSPRVDEKQASITVSVVSGEAWSGYGEYKGIASNYLAELQEGDTITCFISTPQSEFTLPKDPETPLIMVGPGTGVAPFRGFVQARKQLKEQGQSLGEAHLYFGCRSPHEDYLYQEELENAQSEGIITLHTAFSRMPNQPKTYVQHVMEQDGKKLIELLDQGAHFYICGDGSQMAPAVEATLMKSYADVHQVSEADARLWLQQLEEKGRYAKDVWAG | + (0-5.00) | ‡ (0-1000) | + (0-5.00) | ‡‡ (1001-5000) | ++ (5.01-10.00) | ‡‡ (1001-5000) | + (0-5.00) | ‡‡ (1001-5000) |  |  |  |  | 
Variant 3: P450-BM3 variant of SEQ ID NO: 10: K32R; C48S; Y52F; I95P; L216Y; D232H; E349K; M491A; N574T; D722S (protein, P450_BM3, C48S; Y52F; I95P; L216Y; D232H; E349K; M491A; N574T; D722S) MTIKEMPQPKTFGELKNLPLLNTDKPVQALMRIADELGEIFKFEAPGSVTRFLSSQRLIKEACDESRFDKNLSQALKFARDFAGDGLATSWTHEPNWKKAHNILLPSFSQQAMKGYHAMMVDIAVQLVQKWERLNADEHIEVSEDMTRLTLDTIGLCGFNYRFNSFYRDQPHPFIISMVRALDEVMNKLQRANPDDPAYDENKRQCQEDIKVMNDYVDKIIADRKARGEQSHDLLTQMLNGKDPETGEPLDDGNISYQIITFLIAGHETTSGLLSFALYFLVKNPHVLQKVAEEAARVLVDPVPSYKQVKQLKYVGMVLNEALRLWPTAPAFSLYAKEDTVLGGEYPLKKGDEVMVLIPQLHRDKTIWGDDVEEFRPERFENPSAIPQHAFKPFGNGQRACIGQQFALHEATLVLGMMLKHFDFEDHTNYELDIKETLTLKPEGFVVKAKSKKIPLGGIPSPSTEQSAKKVRKKAENAHNTPLLVLYGSNAGTAEGTARDLADIAMSKGFAPQVATLDSHAGNLPREGAVLIVTASYNGHPPDNAKQFVDWLDQASADEVKGVRYSVFGCGDKTWATTYQKVPAFIDETLAAKGAENIADRGEADASDDFEGTYEEWREHMWSDVAAYFNLDIENSEDNKSTLSLQFVDSAADMPLAKMHGAFSTNVVASKELQQPGSARSTRHLEIELPKEASYQEGDHLGVIPRNYEGIVNRVTARFGLSASQQIRLEAEEEKLAHLPLAKTVSVEELLQYVELQDPVTRTQLRAMAAKTVCPPHKVELEALLEKQAYKEQVLAKRLTMLELLEKYPACEMKFSEFIALLPSIRPRYYSISSSPRVDEKQASITVSVVSGEAWSGYGEYKGIASNYLAELQEGDTITCFISTPQSEFTLPKDPETPLIMVGPGTGVAPFRGFVQARKQLKEQGQSLGEAHLYFGCRSPHEDYLYQEELENAQSEGIITLHTAFSRMPNQPKTYVQHVMEQDGKKLIELLDQGAHFYICGDGSQMAPAVEATLMKSYADVHQVSEADARLWLQQLEEKGRYAKDVWAG | ++++ (15.01-20.00) | ‡‡‡‡ (10000-50000) | ++++ (15.01-20.00) | ‡‡‡‡ (10000-50000) | ++++ (15.01-20.00) | ‡‡‡‡ (10000-50000) | ++++ (15.01-20.00) | ‡‡‡‡ (10000-50000) | *** (5.01-10.0) | * (0.0-3.0) | *** (5.01-10.0) | * (0.0-3.0) | 
Variant 5: P450-BM3 variant of SEQ ID NO: 10: C48S; I95P; G115R; L216Y; S231R; D232H; M491A; N574T; T577A; E619D; D722S (protein, P450_BM3, I95P; G115R; L216Y; S231R; D232H; M491A; N574T; T577A; E619D; D722S) MTIKEMPQPKTFGELKNLPLLNTDKPVQALMKIADELGEIFKFEAPGSVTRYLSSQRLIKEACDESRFDKNLSQALKFARDFAGDGLATSWTHEPNWKKAHNILLPSFSQQAMKRYHAMMVDIAVQLVQKWERLNADEHIEVSEDMTRLTLDTIGLCGFNYRFNSFYRDQPHPFIISMVRALDEVMNKLQRANPDDPAYDENKRQCQEDIKVMNDYVDKIIADRKARGEQRHDLLTQMLNGKDPETGEPLDDGNISYQIITFLIAGHETTSGLLSFALYFLVKNPHVLQKVAEEAARVLVDPVPSYKQVKQLKYVGMVLNEALRLWPTAPAFSLYAKEDTVLGGEYPLEKGDEVMVLIPQLHRDKTIWGDDVEEFRPERFENPSAIPQHAFKPFGNGQRACIGQQFALHEATLVLGMMLKHFDFEDHTNYELDIKETLTLKPEGFVVKAKSKKIPLGGIPSPSTEQSAKKVRKKAENAHNTPLLVLYGSNAGTAEGTARDLADIAMSKGFAPQVATLDSHAGNLPREGAVLIVTASYNGHPPDNAKQFVDWLDQASADEVKGVRYSVFGCGDKTWAATYQKVPAFIDETLAAKGAENIADRGEADASDDFEGTYEEWRDHMWSDVAAYFNLDIENSEDNKSTLSLQFVDSAADMPLAKMHGAFSTNVVASKELQQPGSARSTRHLEIELPKEASYQEGDHLGVIPRNYEGIVNRVTARFGLSASQQIRLEAEEEKLAHLPLAKTVSVEELLQYVELQDPVTRTQLRAMAAKTVCPPHKVELEALLEKQAYKEQVLAKRLTMLELLEKYPACEMKFSEFIALLPSIRPRYYSISSSPRVDEKQASITVSVVSGEAWSGYGEYKGIASNYLAELQEGDTITCFISTPQSEFTLPKDPETPLIMVGPGTGVAPFRGFVQARKQLKEQGQSLGEAHLYFGCRSPHEDYLYQEELENAQSEGIITLHTAFSRMPNQPKTYVQHVMEQDGKKLIELLDQGAHFYICGDGSQMAPAVEATLMKSYADVHQVSEADARLWLQQLEEKGRYAKDVWAG | ++++ (15.01-20.00) | ‡‡‡‡ (10000-50000) | ++++ (15.01-20.00) | ‡‡‡‡ (10000-50000) | ++++ (15.01-20.00) | ‡‡‡‡ (10000-50000) | ++++ (15.01-20.00) | ‡‡‡‡ (10000-50000) | *** (5.01-10.0) | * (0.0-3.0) |  | * (0.0-3.0) | *** (5.01-10.0)
Variant 4: P450-BM3 variant of SEQ ID NO: 10: K32R; C48S; Y52F; I95P; Q111R; L216Y; D232H; P347T; E349K; M491A; N574T; E619D; D722S (protein, P450_BM3, C48S; Y52F; I95P; Q111R; L216Y; D232H; P347T; E349K; M491A; N574T; E619D; D722S) MTIKEMPQPKTFGELKNLPLLNTDKPVQALMRIADELGEIFKFEAPGSVTRFLSSQRLIKEACDESRFDKNLSQALKFARDFAGDGLATSWTHEPNWKKAHNILLPSFSQRAMKGYHAMMVDIAVQLVQKWERLNADEHIEVSEDMTRLTLDTIGLCGFNYRFNSFYRDQPHPFIISMVRALDEVMNKLQRANPDDPAYDENKRQCQEDIKVMNDYVDKIIADRKARGEQSHDLLTQMLNGKDPETGEPLDDGNISYQIITFLIAGHETTSGLLSFALYFLVKNPHVLQKVAEEAARVLVDPVPSYKQVKQLKYVGMVLNEALRLWPTAPAFSLYAKEDTVLGGEYTLKKGDEVMVLIPQLHRDKTIWGDDVEEFRPERFENPSAIPQHAFKPFGNGQRACIGQQFALHEATLVLGMMLKHFDFEDHTNYELDIKETLTLKPEGFVVKAKSKKIPLGGIPSPSTEQSAKKVRKKAENAHNTPLLVLYGSNAGTAEGTARDLADIAMSKGFAPQVATLDSHAGNLPREGAVLIVTASYNGHPPDNAKQFVDWLDQASADEVKGVRYSVFGCGDKTWATTYQKVPAFIDETLAAKGAENIADRGEADASDDFEGTYEEWRDHMWSDVAAYFNLDIENSEDNKSTLSLQFVDSAADMPLAKMHGAFSTNVVASKELQQPGSARSTRHLEIELPKEASYQEGDHLGVIPRNYEGIVNRVTARFGLSASQQIRLEAEEEKLAHLPLAKTVSVEELLQYVELQDPVTRTQLRAMAAKTVCPPHKVELEALLEKQAYKEQVLAKRLTMLELLEKYPACEMKFSEFIALLPSIRPRYYSISSSPRVDEKQASITVSVVSGEAWSGYGEYKGIASNYLAELQEGDTITCFISTPQSEFTLPKDPETPLIMVGPGTGVAPFRGFVQARKQLKEQGQSLGEAHLYFGCRSPHEDYLYQEELENAQSEGIITLHTAFSRMPNQPKTYVQHVMEQDGKKLIELLDQGAHFYICGDGSQMAPAVEATLMKSYADVHQVSEADARLWLQQLEEKGRYAKDVWAG | ++++ (15.01-20.00) | ‡‡‡‡ (10000-50000) | ++++ (15.01-20.00) | ‡‡‡‡ (10000-50000) | ++++ (15.01-20.00) | ‡‡‡‡ (10000-50000) | ++++ (15.01-20.00) | ‡‡‡‡ (10000-50000) | *** (5.01-10.0) | * (0.0-3.0) |  | * (0.0-3.0) | *** (5.01-10.0)
